According to patent US20220356230A1 (published 2022):
Where a chain is given by its changes, count along the chain named.

T1: MERS-CoV (SARS-CoV-2) Spike Protein S2 (aa 726-1296, His Tag) (Sino 40070-[change]) (MERS-CoV, UniProt K9N5Q8 726-1296)
T1 sequence: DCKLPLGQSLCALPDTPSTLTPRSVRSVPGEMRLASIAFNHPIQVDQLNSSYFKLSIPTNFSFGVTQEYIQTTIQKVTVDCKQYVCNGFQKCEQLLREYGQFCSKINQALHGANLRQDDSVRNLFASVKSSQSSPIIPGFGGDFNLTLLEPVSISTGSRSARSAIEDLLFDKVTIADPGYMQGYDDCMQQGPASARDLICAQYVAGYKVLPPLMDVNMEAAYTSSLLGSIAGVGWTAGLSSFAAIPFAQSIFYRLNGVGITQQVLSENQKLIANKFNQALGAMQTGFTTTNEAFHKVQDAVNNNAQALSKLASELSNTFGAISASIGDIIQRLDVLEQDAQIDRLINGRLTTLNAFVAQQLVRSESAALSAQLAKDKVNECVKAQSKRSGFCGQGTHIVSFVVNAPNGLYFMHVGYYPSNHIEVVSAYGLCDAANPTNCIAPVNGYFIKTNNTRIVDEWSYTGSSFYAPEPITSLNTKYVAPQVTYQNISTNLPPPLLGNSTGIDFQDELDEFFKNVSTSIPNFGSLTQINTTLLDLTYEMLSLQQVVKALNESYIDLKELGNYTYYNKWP

T2: MERS-CoV (SARS-CoV-2) Spike Protein (ECD, aa 1-1297, His Tag) (Sino 40069-[change]) (MERS-CoV, UniProt K9N5Q8 18-1297)
T2 sequence: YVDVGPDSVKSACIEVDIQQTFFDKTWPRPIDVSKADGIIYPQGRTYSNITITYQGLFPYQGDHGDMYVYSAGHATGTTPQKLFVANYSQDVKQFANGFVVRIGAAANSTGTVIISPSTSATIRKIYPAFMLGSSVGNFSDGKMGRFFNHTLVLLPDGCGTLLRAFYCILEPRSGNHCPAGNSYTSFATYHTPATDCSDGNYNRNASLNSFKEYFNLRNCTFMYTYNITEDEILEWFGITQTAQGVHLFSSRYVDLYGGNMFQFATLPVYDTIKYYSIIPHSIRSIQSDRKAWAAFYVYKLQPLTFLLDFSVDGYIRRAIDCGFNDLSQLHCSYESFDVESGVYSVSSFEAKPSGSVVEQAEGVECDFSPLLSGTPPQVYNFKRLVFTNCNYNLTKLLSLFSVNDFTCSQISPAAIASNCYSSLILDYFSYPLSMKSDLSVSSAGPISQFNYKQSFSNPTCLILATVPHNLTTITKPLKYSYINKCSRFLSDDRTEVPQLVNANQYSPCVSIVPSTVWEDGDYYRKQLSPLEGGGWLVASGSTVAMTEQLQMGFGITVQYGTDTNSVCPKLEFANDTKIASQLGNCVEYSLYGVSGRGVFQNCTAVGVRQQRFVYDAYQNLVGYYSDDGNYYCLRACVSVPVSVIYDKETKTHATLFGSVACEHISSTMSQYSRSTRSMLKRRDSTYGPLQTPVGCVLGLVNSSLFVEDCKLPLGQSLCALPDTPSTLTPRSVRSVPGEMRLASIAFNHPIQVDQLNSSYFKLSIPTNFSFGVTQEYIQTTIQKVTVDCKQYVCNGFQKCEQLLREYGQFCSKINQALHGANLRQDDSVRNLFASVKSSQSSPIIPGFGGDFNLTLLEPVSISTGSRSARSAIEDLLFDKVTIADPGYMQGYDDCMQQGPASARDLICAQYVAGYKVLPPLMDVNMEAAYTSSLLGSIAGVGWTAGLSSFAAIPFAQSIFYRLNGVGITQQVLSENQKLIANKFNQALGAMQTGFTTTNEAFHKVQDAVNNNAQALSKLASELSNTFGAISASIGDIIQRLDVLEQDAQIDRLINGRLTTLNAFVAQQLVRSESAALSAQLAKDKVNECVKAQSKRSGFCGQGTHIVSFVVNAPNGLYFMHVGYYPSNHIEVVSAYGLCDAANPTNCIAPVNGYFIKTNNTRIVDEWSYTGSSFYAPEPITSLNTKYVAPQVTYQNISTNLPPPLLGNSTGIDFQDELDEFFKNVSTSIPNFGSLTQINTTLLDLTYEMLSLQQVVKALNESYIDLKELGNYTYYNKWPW

T3: MERS-CoV (SARS-CoV-2) Spike Protein (ECD, aa 1-1297, His Tag) (Sino 40069-[change]) (MERS-CoV, UniProt K9N5Q8 18-1297)
T3 sequence: T2 sequence

T4: MERS-CoV (SARS-CoV-2) Spike Protein S2 (aa 726-1296, His Tag) (Sino 40070-[change]) (MERS-CoV, UniProt K9N5Q8 726-1296)
T4 sequence: T1 sequence

B1: mAb10914 (antibody, V domains shown)
VH: EVQLVESGGGLVQPGGSLRLSCAASGLIVSRNYMIWVRQAPGKGLEWVSVIYSGGSTFYADSVKGRFTISRHNSKNTLYLQMNSLRAEDTAVYYCARDLGTGGMDVWGQGTTVTVSS
VL: DIQLTQSPSFLSASVGDRVTITCWASQGISSYLAWYQQKPGKAPKLLIYAASTLQSGVPSRFSGSGSGTEFTLTISSLQPEDFATYYCQQLNSYPLTFGGGTKVEIKR
B2: mAb10933 (antibody, V domains shown)
VH: QVQLVESGGGLVKPGGSLRLSCAASGFTFSDYYMSWIRQAPGKGLEWVSYITYSGSTIYYADSVKGRFTISRDNAKSSLYLQMNSLRAEDTAVYYCARDRGTTMVPFDYWGQGTLVTVSS
VL: DIQMTQSPSSLSASVGDRVTITCQASQDITNYLNWYQQKPGKAPKLLIYAASNLETGVPSRFSGSGSGTDFTFTISGLQPEDIATYYCQQYDNLPLTFGGGTKVEIKR
B3: mAb10913 (antibody, V domains shown)
VH: EVQLVESGGGLVQPGGSLRLSCAASGFTFRNYEMNWVRQAPGKGLEWVSYITSSGSTMYYADSVKGRFTISRDNAKNSLYLQMNSLRAEDTAVYYCARDGFYYYYAMDVWGQGTTVTVSS
VL: QSVLTQPPSVSAAPGQKVTISCSGSSSNIGNNYVSWYQQLPGTAPKLLIYDNNKRPSGIPDRFSGSKSGTSATLGITGLQTGDEADYYCGTWDSSLSVGRVFGTGTKVTVLG
B4: mAb10915 (antibody, V domains shown)
VH: EVQLVESGGGLVQPGGSLRLSCAASGFTVSSNYMNWVRQAPGKGLEWVSVIYSGGSTFYADSVKGRFTISRHNSKNTLYLQMNSLRPEDTAVYYCARDLGGYFDYWGQGTLVTVSS
VL: not shown
B5: mAb10934 (antibody, V domains shown)
VH: not shown
VL: B2 VL with T30W, L33I, A50D, E55K, G77S, Y91H, N93D, L96P, G100Q
B6: mAb10986 (antibody, V domains shown)
VH: EVQLVESGGGLVQPGGSLRLSCAASEFTVSSNYMSWVRQAPGKGLEWVSVIYSGGSTFYADSVKGRFTISRDNSKNTLYLQMNSLRAEDTAVYYCARALPYGDLHFDYWGQGTLVTVSS
VL: QSVLTQPPSVSGAPGQRVTISCTGSSSNIGTGYDVHWYQQLPGTAPKLLIYGNTNRPSGVPDRFSGSKSGTSASLAITGLQAEDEADYYCQSYDSSLSDSYVFGTGTKVTVLG
B7: mAb10955 (antibody, V domains shown)
VH: EVQLVESGGGLVQPGGSLRVSCAASGFTVSRNYMSWVRQAPGKGLEWVSVIYSGGSTFYADSVKGRFTISRDNSKNTLYLQMNSLRAEDTAIYYCARYIPRFDPWGQGTLVTVSS
VL: B2 VL with T30S, Y36F, K42R, A50D, G77S, L96I, G100Q, K103R, V104L
B8: mAb10966 (antibody, V domains shown)
VH: EVQLVESGGGLVQPGGSLRLSCAASGLTVSSNYMSWVRQAPGKGLEWVSVIYSGGSTFYADSVKGRFTISRDNSKNTLYLQMNSLRPEDTAVYYCAREGRIAATGYGMDVWGQGTTVTVSS
VL: not shown
B9: mAb10971 (antibody, V domains shown)
VH: EVQLVESGGGLIQPGGSLRLSCAASGVTVSSNYMSWVRQAPGKGLEWVSVIYSGGSTFYSDSVKGRFSISRDNSKNTLYLQMNSLRAEDTAVYYCARDLYYYGMDVWGQGTTVTVSS
VL: DIQLTQSPSFLSASVGDRVTITCRASQGISTYLAWYQQKPGKAPKLLIYAASTLQSGVPSRFSGSGSGTEFTLTISSLQPEDFATYYCQQLDSYPGLTFGGGTKVEIKR
B10: mAb10957 (antibody, V domains shown)
VH: B9 VH with I12V, S60A, S68T, Y79F, A87I, Y100G, Y101P
VL: B9 VL with T31S, E70Q, T72I, D92N, L97F, G101P, E106D
B11: mAb10956 (antibody, V domains shown)
VH: B9 VH with I12V, V27L, S60A, S68T, Y100I, Y101K
VL: not shown
B12: mAb10969 (antibody, V domains shown)
VH: QVQLVESGGGVVQPGRSLRLSCAASGFTFSSYAMHWVRQAPGKGLEWVAVISYDGSNKYYADSVKGRFTISRDNSKNTLYLQMNSLRAEDTAVYYCARDGRTITMVRGVIDDAFDIWGQGTMVTVSS
VL: not shown
B13: mAb10964 (antibody, V domains shown)
VH: QVQLQESGPGLVKPSETLSLTCTVSGGSINNYYWIWIRQPPGKGLEWIGYIYHSGSTNYNPSLKSRVTISVDTSKNQFSLKVSSVTAADTAVYYCANMVRGVYEDDYWGQGTLVTVSS
VL: DIQMTQSPSSLSASVGDRVTITCRASQSISNYLNWYQQKPGKAPKLLIFAASSLRSGVPSRFSGSGSGTDFTLTISSLHPEDFATYYCQQNYNTPLTFGPGTKVDIKR
B14: mAb10970 (antibody, V domains shown)
VH: EVQLVESGGGLVQPGGSLRLSCAASGFTVSSNYMSWVRQAPGKGLEWVSVIYSGGSTYYADSVKGRFTISRDNSKNTLYLQMNRLRADDTAVYYCVRDPVGRYYYGMDVWGQGTTVTVSS
VL: not shown
B15: mAb10987 (antibody, V domains shown)
VH: QVQLVESGGGVVQPGRSLRLSCAASGFTFSNYAMYWVRQAPGKGLEWVAVISYDGSNKYYADSVKGRFTISRDNSKNTLYLQMNSLRTEDTAVYYCASGSDYGDYLLVYWGQGTLVTVSS
VL: QSALTQPASVSGSPGQSITISCTGTSSDVGGYNYVSWYQQHPGKAPKLMIYDVSKRPSGVSNRFSGSKSGNTASLTISGLQSEDEADYYCNSLTSISTWVFGGGTKLTVLG

What follows are binders tested against T1, MERS-CoV (SARS-CoV-2) Spike Protein S2 … (assay: Luminex bead assay, supernatant on antigen microspheres).
With B1 the “Binding signal (MFI)” value was 28 MFI.
In the case of B2, the “Binding signal (MFI)” value is reported as 19 MFI.
B3 was tested, and the “Binding signal (MFI)” value was 26 MFI.
For B4, the “Binding signal (MFI)” value was 23 MFI.

What follows are binders tested against T2, MERS-CoV (SARS-CoV-2) Spike Protein … in the same assay as above.
B1 was tested, and the “Binding signal (MFI)” value was 19 MFI.
With B5 the “Binding signal (MFI)” value was 15 MFI.
With B3 the “Binding signal (MFI)” value was 20 MFI.

Each binder was assayed against SARS-CoV-2 spike protein (S-wt, Wuhan-Hu-1, NCBI Accession Number MN908947.3) on VSV-SARS-CoV-2-S … (SARS-CoV-2, UniProt P0DTC2 14-1273) (assay: cell-based or functional assay).
For B6, the “mAb neutralization potency (IC50 (M))” value was 9.91e-11 M.

Each binder was assayed against Human SARS Coronavirus Spike S1 Subunit Protein (His Tag) (Sino 40150-V08B1) (Human SARS Coronavirus, UniProt P59594 14-667) (assay: Luminex bead binding, antigen on microspheres, antibody supernatant).
B7 gave an MFI of 14 MFI.
For B8, the MFI was 20 MFI.
B9 showed an MFI of 20 MFI.
Work on B10 yielded an MFI of 16 MFI.
B11 gave an MFI of 16 MFI.
For B12, the MFI was 20 MFI.
Work on B13 yielded an MFI of 5190 MFI.

The binders below were run against T3, MERS-CoV (SARS-CoV-2) Spike Protein … in the same assay as above.
B7 was tested, and the MFI was 15 MFI.
B8 showed an MFI of 16 MFI.
In the case of B9, the MFI is reported as 15 MFI.
Binder B10 has an MFI of 15 MFI.
B11 showed an MFI of 15 MFI.
For B12, the MFI was 16 MFI.
Binder B14 has an MFI of 14 MFI.
Work on B15 yielded an MFI of 15 MFI.
B13 showed an MFI of 15 MFI.

Each binder was assayed against T4, MERS-CoV (SARS-CoV-2) Spike Protein S2 … in the same assay as above.
B7 gave an MFI of 18 MFI.
B8 showed an MFI of 16 MFI.
B9 was tested, and the MFI was 13 MFI.
With B10 the MFI was 18 MFI.
In the case of B11, the MFI is reported as 16 MFI.
B12 gave an MFI of 20 MFI.
Work on B14 yielded an MFI of 16 MFI.
B15 showed an MFI of 23 MFI.
